# B1: 4H9 (antibody, V domains shown)
# VH: AVQLVESGGGLVRPGGSLRLSCAASGFTFSSHEMHWVRQAPGKGLEWLSYIDFTGSIIYYADSVRGRFTISRDNTKKSLFLQMNSLRDEDTALYYCARDGGRWGTSWYYFDYWGQGVLVTVSS
# VL: QSVLTQPPSVSGAPGQRVTITCTGSSSNFGAGYDGHWYQQLPGTAPKLLIYGSNRPSGVPDRFSGSKSGTSVSLAITGLQADDEADYYCQSYDSSLSAWVFGGGTKLTVL
# notes: human IgG; also called 4H9-biotin
# B2: 7H3 (antibody, V domains shown)
# VH: QVQLVQSGAEVKNPGASVKVSCKASGYTFTDYYIHWVRQAPGQGLEWMGWFNPNSGGTNFVQNFQGRVTMTRDTSISTAYMELSRLRSDDTAMYYCAKDSAKTASAYYGLNFFYYGMDVWGQGTTVTVSS
# VL: QSVLSQPPSASGTPGQRVTISCSGSSSNIGKNYVYWYQQVPGTAPKLLMFKNNQRPSGVPDRFSGSKSGTSASLAISGLRSEDEADYYCSAWDGSLSRPLFGGGTKVTVL
# notes: human IgG; also called 7H3-biotin
# B3: 2B11 (antibody, V domains shown)
# VH: AVRLVESGGGLAQPGRSLRLSCQVSGFTFGSYEMNWVRQAPGKGLEWIAYIDFTGSTIYYADSVKGRFTISRNTARNSLYLQMNSLRVEDTAVYYCVRDAGRWGTSWYYFDYWGQGTRVTVSP
# VL: QSVLTQPPSVSGAPGQRVTISCTGISSNIGAGYDIHWYQQIPGKAPKLLVYGNNNRPSGVPDRFSGSKSGTSVSLAITGLQVEDEADYYCQSYDNSLNGWVFGGGTRLTVL
# notes: human IgG; also called 2B11-biotin
# B4: 4N10 (antibody, V domains shown)
# VH: QVQLVQSGAEVKKPGSSVRVSCKASGGTFSSYVIIWVRQAPGQGLEWMGGVIPIFDTVNYAQKFQGRVTITADESTSTAYMELSSLKSEDTAVYYCARGILAYCGGDCYNTPYGMDVWGQGTTVTVSS
# VL: DIQMTQSPSILSASVGDRVTITCRASQSISSWLAWYQQKPGKAPKLLIYKASSLEIGVPSRISGSGSGTEFTLTISSLQPDDFATYYCQQYNSSWTFGQGTKVEIK
# B5: 8L13 (antibody, V domains shown)
# VH: QVQLLESGGGVVQPGRSLRLSCAASGFTFSNYGMHWVRQAPGKGLEWVAVIWNDGSKKYYAESVKGRFTISRDNSKNTVYLQMNSLRAEDTAVYYCARDEGVQMVFAMPDYGMDVWGQGTTVTVSS
# VL: SYELTQPPSVSVSPGQTASITCSGDKLGDKFACWYQQRPGQSPILVIYQDSKRPSGIPERFSGSNSGNTATLTIRGTQAMDEADYYCQAWDSSTAHYVFGTGTKVTVL
# B6: 10P3 (antibody, V domains shown)
# VH: EVQLVESGGGLVRPGGSLRLSCAASGFTFHNYRMNWVRQAPGKGLEWVANIKQDGSEKSYVDSVRGRFTTSRDNSKNSLYLQINSLRAEDTAVYYCARGEGYTYGVVYSYSAMDVWGQGTTVIVSS
# VL: SYELTQPPSVSVSPGQTARITCSGNVLPNQYASWYQQKPGQAPVLVIYKDTERPSGIPGRFSGSSSGTTVTLTISGVQAEDEADYYCQSADSSGADYVFGTGTKVTVL
# B7: 3G16 (antibody, V domains shown)
# VH: QSALTQPASVSGSPGESITISCTGTISDVGAYNSVSWYQQHSGTAPELIIYDVTNRPAGVSSRFSGSKSGNTASLTISWLQSEDEAEYYCSSYTTSDTYVFGSGTQVTVL
# V domain: RAQLVQSAAEMKNPGASVKVSCEASGYTFTGYYVHWMRQAPGQGLEWMGWINPMTGATKSPQKFQGRVTMTRDTSTTATHIELTRLRSDDSAVFFCARGGPTSTRITGKRHFDLWGRGTLITVAS
# B8: 13H11 (antibody, V domains shown)
# VH: QVQLVQSGAEVKKPGASVKVSCKASGYTFTNYYIHWVRQAPGQGLEWMGIIHPSSGGTSYAQKFQGRVTMTRDTSTSTVSMDLSSLRSEDTAVYYCGRAFRILGLSDVFVNDWGQGTVVTVSS
# VL: DIQMTQSPSSLSASVGDRVTITCRASQGINNYLAWYQQKPGKVPKLLIYAASTLQSGVPSRFSGSGSGTAFTLTILSLQPEDVATYYCQKYNSAPFTFGPGTKVDIK
# B9: 10F7 (antibody, V domains shown)
# VH: EVQLVESGGGLVQPGRSLRLSCTASGFTFGDYAMSWFRQAPGKGLEWVGFIRSKAYGGTTEYAASVKGRFTISRDDSKSIAYLQMNSLKTEDTAVYYCTRASSLLWLLNPQPNFDYWGQGTLVTVSS
# VL: SYVLTQPPSVSVAPGQTARITCGGNNIGSNNVHWYQQKPGQAPVLVVYDDSDRPSGIPERFSGSNSGNTATLTISRVEAGDEADYYCQVWDSSSDHPVFGGGTKLTVL
# B10: 4I22 (antibody, V domains shown)
# VH: QVQLVESGGGVVQPGRSLRLSCVASGFTFSSYAMHWVRQAPGKGLEWVAVISYDGDNKFYADSVKGRFRISRDTSKNTLYLEMNSLRAADTAIYYCAREELVGLMPPYYNYGLDVWGQGTTVTVSS
# VL: QSVLTQPPSVSAAPGQKVTISCSGSNSNIGNNYVSWYQQLPGRAPKLLIYDNDHRPSGIPDRFSGSKSGTSATLVITGLQTGDEADYYCETWDTSLSAAVVFGGGTKLTVL
# B11: 11B12 (antibody, V domains shown)
# VH: QMQLVQSGPQVKKPGTSVKVSCKASGFTFTSSAMQWVRQARGQRPEWIGWIVLGSGNTNYAQKFQERVTLTRDMSTATAYMELSSLRSEDTAVYYCAADRGRGGYNVYTYWGQGTLVAVSS
# VL: EIVMTQSPGTLSLSPGERATLSCRASQTISNTYVAWYQQKPGQAPRLLIYGASSRATGIPDRFSGSGSGTDFTLTIRRLEPEDFAVYYCQQNGQSPWTFGQGTNVEIK
# Key:
# [1] = biological target: T1, hCMV gB (expressed in HEK293T cells) (human cytomegalovirus, UniProt P06473 32-906); assay: competitor: 2B11-biotin; cell staining
# T1 construct: whole, on cells; also called envelope glycoprotein B; UL55
# T1 sequence (P06473 32-906 limits assumed): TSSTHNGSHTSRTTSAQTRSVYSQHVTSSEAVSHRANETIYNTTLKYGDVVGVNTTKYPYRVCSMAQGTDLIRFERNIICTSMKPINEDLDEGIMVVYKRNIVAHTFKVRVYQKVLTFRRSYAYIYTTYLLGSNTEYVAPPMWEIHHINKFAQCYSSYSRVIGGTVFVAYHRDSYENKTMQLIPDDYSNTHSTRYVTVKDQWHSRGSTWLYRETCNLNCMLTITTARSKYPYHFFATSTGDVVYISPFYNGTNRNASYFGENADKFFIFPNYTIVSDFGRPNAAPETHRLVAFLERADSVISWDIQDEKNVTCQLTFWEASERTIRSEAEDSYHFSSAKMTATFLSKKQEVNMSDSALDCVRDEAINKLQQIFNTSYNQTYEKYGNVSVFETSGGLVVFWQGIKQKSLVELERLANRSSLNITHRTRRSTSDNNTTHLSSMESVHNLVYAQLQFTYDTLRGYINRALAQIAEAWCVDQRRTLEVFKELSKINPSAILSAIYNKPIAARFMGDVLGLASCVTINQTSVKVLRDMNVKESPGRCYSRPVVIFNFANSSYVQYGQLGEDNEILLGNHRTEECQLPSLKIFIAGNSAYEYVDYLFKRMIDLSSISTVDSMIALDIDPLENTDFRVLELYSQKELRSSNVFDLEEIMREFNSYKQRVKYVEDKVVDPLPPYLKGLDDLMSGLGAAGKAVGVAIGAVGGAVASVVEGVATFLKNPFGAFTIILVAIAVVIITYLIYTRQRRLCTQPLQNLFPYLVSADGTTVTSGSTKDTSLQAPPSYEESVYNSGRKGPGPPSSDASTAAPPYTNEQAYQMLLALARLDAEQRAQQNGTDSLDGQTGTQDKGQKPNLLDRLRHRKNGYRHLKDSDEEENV
# [2] = biological target: T1, hCMV gB (expressed in HEK293T cells); assay: competitor: 5F1-biotin; cell staining
# [3] = biological target: T1, hCMV gB (expressed in HEK293T cells); assay: competitor: 10C6-biotin; cell staining
# [4] = biological target: T1, hCMV gB (expressed in HEK293T cells); assay: cell-based or functional assay
# [5] = biological target: T1, hCMV gB (expressed in HEK293T cells); assay: competitor: 4H9-biotin; cell staining
# [6] = biological target: T1, hCMV gB (expressed in HEK293T cells); assay: competitor: 7H3-biotin; cell staining
# [7] = biological target: T1, hCMV gB (expressed in HEK293T cells); assay: competitor: 6B4-biotin; cell staining
# [8] = biological target: T1, hCMV gB (expressed in HEK293T cells); assay: cell-based or functional assay; remark: listed apart in the source
# [9] = biological target: T1, hCMV gB (expressed in HEK293T cells); assay: cell-based or functional assay; remark: listed apart in the source
# [10] = biological target: T2, hCMV UL130 + UL131A (co-expressed in HEK293T cells) (human cytomegalovirus, UniProt P16772 1-214; F5HET4 19-129); assay: cell-based or functional assay
# [11] = biological target: T2, hCMV UL130 + UL131A (co-expressed in …); assay: cell-based or functional assay; remark: listed apart in the source
# [12] = biological target: T3, hCMV gH (expressed in HEK293T cells) (human cytomegalovirus, UniProt P12824 24-743); assay: cell-based or functional assay
# [13] = biological target: T3, hCMV gH (expressed in HEK293T cells); assay: cell-based or functional assay; remark: listed apart in the source
binder,measurement,setting,value
B1,Inhibition of binding (%),[1],100%
same,Inhibition of binding (%),[2],100%
same,Inhibition of binding (%),[3],100%
same,90% Neutralization ARPE,[4],0.4 µg/mL
same,90% Neutralization MRC-9,[4],10 µg/mL
same,Inhibition of binding (%),[5],100%
same,Inhibition of binding (%),[6],0%
same,Inhibition of binding (%),[7],0%
same,50% Neutralization ARPE,[8],≤ 2 µg/mL
same,50% Neutralization MRC-9,[8],≤ 2 µg/mL
B2,Inhibition of binding (%),[1],0%
same,Inhibition of binding (%),[2],0%
same,Inhibition of binding (%),[3],0%
same,90% Neutralization ARPE,[4],0.6 µg/mL
same,90% Neutralization MRC-9,[4],3 µg/mL
same,Inhibition of binding (%),[5],0%
same,Inhibition of binding (%),[6],100%
same,50% Neutralization BM-MSC,[9],2 µg/mL
same,50% Neutralization Mo-DC,[9],0.06 µg/mL
same,Inhibition of binding (%),[7],0%
same,50% Neutralization ARPE,[8],> 2 µg/mL
same,50% Neutralization MRC-9,[8],≤ 2 µg/mL
B3,Inhibition of binding (%),[1],100%
same,Inhibition of binding (%),[2],100%
same,Inhibition of binding (%),[3],100%
same,90% Neutralization ARPE,[4],0.2 µg/mL
same,90% Neutralization MRC-9,[4],0.75 µg/mL
same,Inhibition of binding (%),[5],100%
same,Inhibition of binding (%),[6],0%
same,Inhibition of binding (%),[7],0%
B4,90% Neutralization ARPE,[10],0.02 µg/mL
same,90% Neutralization MRC-9,[10],> 10 µg/mL
same,50% Neutralization ARPE,[11],< 0.001 µg/mL
same,50% Neutralization MRC-9,[11],≤ 2 µg/mL
B5,90% Neutralization ARPE,[10],0.001 µg/mL
same,90% Neutralization MRC-9,[10],> 10 µg/mL
same,50% Neutralization ARPE,[11],< 0.01 µg/mL
same,50% Neutralization MRC-9,[11],> 2 µg/mL
B6,90% Neutralization ARPE,[10],0.0025 µg/mL
same,90% Neutralization MRC-9,[10],> 10 µg/mL
same,50% Neutralization ARPE,[11],< 0.001 µg/mL
same,50% Neutralization MRC-9,[11],> 2 µg/mL
B7,90% Neutralization ARPE,[12],0.3 µg/mL
same,90% Neutralization MRC-9,[12],1 µg/mL
same,50% Neutralization ARPE,[13],≤ 2 µg/mL
same,50% Neutralization MRC-9,[13],≤ 2 µg/mL
B8,90% Neutralization ARPE,[12],0.4 µg/mL
same,90% Neutralization MRC-9,[12],1.12 µg/mL
same,50% Neutralization ARPE,[13],< 0.01 µg/mL
same,50% Neutralization MRC-9,[13],≤ 2 µg/mL
B9,90% Neutralization ARPE,[10],0.002 µg/mL
same,90% Neutralization MRC-9,[10],> 10 µg/mL
same,50% Neutralization ARPE,[11],< 0.01 µg/mL
same,50% Neutralization MRC-9,[11],≤ 2 µg/mL
B10,90% Neutralization ARPE,[10],0.0015 µg/mL
same,90% Neutralization MRC-9,[10],> 10 µg/mL
same,50% Neutralization ARPE,[11],< 0.01 µg/mL
same,50% Neutralization MRC-9,[11],> 2 µg/mL
B11,90% Neutralization ARPE,[12],1.2 µg/mL
same,90% Neutralization MRC-9,[12],3.5 µg/mL
same,50% Neutralization ARPE,[13],≤ 2 µg/mL
same,50% Neutralization MRC-9,[13],≤ 2 µg/mL
